Experimental findings from the supplement of paper PMC9170038 are described below.

In this data set the test system is MS2 coat protein. Briefly: apparent KD of MS2 coat protein; designed switch direction (-1 OFF switch, 1 ON switch): -1; higher = weaker reporter binding. The essentials:
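Designed RNA switches sharing common flanks were transcribed on Illumina chips by stalled E. coli RNA polymerase. They were titrated with SNAP-549-labelled MS2 coat protein, from 0.7 or 1.5 nM doubling to 3 µM, in Tris-HCl pH 7.5 buffer with KCl, MgCl2, BSA, DTT, tRNA and Tween-20. Titrations ran without input, with 200 uM small-molecule ligand, or with an oligonucleotide input. The apparent KD of each design is the median over its clusters, after curve-fitting of normalised cluster fluorescence.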

[1] abbreviates: input ligand: microRNA oligo, concentration not stated.
Where [2] appears, read: Eterna round: R95, input ligand: microRNA oligo, concentration not stated.

With “UUCUUUACACGAGGAUAUCAUACAUGAGGAUCACCCAUGUUACUUUGUCUGUUAUUAUGUAUUAUUGAGAAGGCGUUUUUCUUU [JR_ExcNG2_Sub077] (Eterna round: R96, puzzle: Exclusion NG 2)”, the “apparent KD of MS2 coat protein” value under setting [1] was found to be 15.8 nM.
As to “ACAUGAGGAUCACCCAUGUCUGGCGGGUCCUCUCCGGCUGUUGAGGAUAUAGUCCGGUAUCCGCGCUAGAAGGUGAGGGCCGGC [Aenatbe mod 19] (Eterna round: R96, puzzle: Exclusion NG 3)”, the “apparent KD of MS2 coat protein” value by setting is: (input ligand: FMN 200 uM) 21.8 nM; under setting [1], 13.8 nM; (input ligand: none) 23.5 nM.
As to “AUAAAUGAUGAGGAUAUCACUAGCGAUAGCUAGUGAGAAGGCAUCACAUGAGGAUCACCCAUGUGAUCCAAUAA [Mod6 Ex6/6-A4 by Brourd] (Eterna round: R97, puzzle: Exclusion 6)”, the “apparent KD of MS2 coat protein” value by setting is: (input ligand: FMN 200 uM) 479 nM; (input ligand: none) 359 nM.
With “AAGCAGCGAGGAUAUGCUUGCGCGUGUUCUAGUUGAAAUAAACUUGAGGAUCACCCAAGUAGAAGGCGCAACCG [EX2 #44] (Eterna round: R97, puzzle: Exclusion 2)”, the “apparent KD of MS2 coat protein” value by setting is: (input ligand: FMN 200 uM) 437 nM; (input ligand: none) 65.6 nM.
For “GUCAUGUUAGGAUAUCUAACAUGUGACUUCGGUCACUGUCCAGAGAAGGAACAUGAGGAUCACCCAUGUUGGAC [Ex4-3: 56] (puzzle: Exclusion 4)”, the “apparent KD of MS2 coat protein” value under setting [2] worked out at 13 nM.
Consider “GAUACACAUGAGGAUCACCCAUGUGAGGAUAUGCGUACGUUGUCCGUAGGCGACGUGCGCAGAAGGCGCGUGAG [Mat - Mod of JL D88] (puzzle: Exclusion 1)”, for which the “apparent KD of MS2 coat protein” value under setting [2] came out at 46.4 nM.
The same measure, in the same setting: the result for “UUCCUCGUUGUGAGGAUAUCGUCCGGGUUUUGUUACGAGAAGGCACAUGAGGAUCACCCAUGUUACUUGAUGUU [JR_BMOE4_Sub072] (puzzle: Brourd's mod of Exclusion 4)” reads 20 nM.
Take “AACCUGAGGCUUUGCUUUAGGUGUACAUGAGGAUCACCCAUGUAGGAUAUGGUAGGCAAAGCUUACCAGAAGGACAUUGGCGUA [Mat - Exclusion NG 3 - Mod of JL - D40] (Eterna round: R96, puzzle: Exclusion NG 3)”: the “apparent KD of MS2 coat protein” value reads like this: (input ligand: FMN 200 uM) 342 nM; under setting [1], 94.7 nM; (input ligand: none) 107 nM.
On to “CCGGUAUAGGAGGAUAUAGGAGUCGAUAGACACCUAGAAGGCCUGACAUGAGGAUCACCCAUGUGUCCUACCGG [Fiskers Ex 6 - 96] (puzzle: Exclusion 6)”, for which the “apparent KD of MS2 coat protein” value under setting [2] was 15.9 nM.
Take “CCGUAGUCAGGAUAUACAUGAGGAUCACCCAUGUAAAAUUUUAAUUUAAUUUGAAGGUGUAGAAGGGACCAGUC [Ex3 #27] (Eterna round: R97, puzzle: Exclusion 3)”: the “apparent KD of MS2 coat protein” value is 34.9 nM (input ligand: FMN 200 uM) and 33.3 nM (input ligand: none).
On the same counts, the results for “GUAAAGAGAGGAUAUACAUGAGGAUCACCCAUGUACGACCAGCAGAAAUGGUCCUCGAGUAGAAGGCUCGGGUA [Araris] (Eterna round: R97, puzzle: Exclusion 3)” are 239 nM and 51.7 nM.
On to “UGUACUAUGCGUGCUGACAUGCGUAGUGCAGCAGGUGUUACAUGAGGAUCACCCAUGUCCUCAUUUGCUCGUCUUAA [Mat - Sensor v3 - Turn-off var 2 - D17] (puzzle: Sensor v3, turn-off variant 2)”, for which the “apparent KD of MS2 coat protein” value was 205 nM (Eterna round: R95, input ligand: FMN 200 uM); 219 nM under setting [2]; 177 nM (Eterna round: R95, input ligand: none).
Take “AGUCGGCGAGGAUAUACAUGAGGAUCACCCAUGUGAUAGAGUGCACGCGUACGUGUAUGUAGAAGGCGCUGACA [Mat - Exclusion 3 - Mod of JL D97] (puzzle: Exclusion 3)”: the “apparent KD of MS2 coat protein” value under setting [2] came to 61.4 nM.
For “AGCAUGUAAGGAUAUGCAAGUGGCACGGAUAGUACCAGAAAGCAGAAGGUACAUGAGGAUCACCCAUGUGCUCC [Anenen] (Eterna round: R96, puzzle: Exclusion 4)”, the “apparent KD of MS2 coat protein” value reads like this: (input ligand: FMN 200 uM) 233 nM; under setting [1], 67.2 nM; (input ligand: none) 80.1 nM.
Regarding “AUUUUAUAUGAAGGAUAUACUUAACAUGAGGAUCACCCAUGUGGUGUUGUGAGUGAGUGAGUUUAGUAGAAGGUCAAUGAUUUU [JMF's solution 76] (Eterna round: R96, puzzle: Exclusion NG 2)”, the “apparent KD of MS2 coat protein” value turned out to be 828 nM (input ligand: FMN 200 uM), 527 nM under setting [1] and 327 nM (input ligand: none).
On to “CUUCUGUGAGGAUAUGUGAACCCGUGCCGAAAGGAUGGGAAACAGAAGGCACAUGAGGAUCACCCAUGUAAAAU [Isergeat] (puzzle: Exclusion 4)”, for which the “apparent KD of MS2 coat protein” value under setting [2] amounted to 29.1 nM.
In the case of “AAUUAAACAAGCAGAUCCCACAUGAGGAUCACCCAUGUGCUCGUCUUAUAAGGUACUGUGACGAUAGUCACGGUACC [Mat - Sensor, turn-off var - Eli Mod - D65] (Eterna round: R97, puzzle: Sensor, turn-off variant 1)”, the “apparent KD of MS2 coat protein” value was 44.6 nM (input ligand: FMN 200 uM) and 42.7 nM (input ligand: none).
On the same counts, the results for “GUAAACGCAGAGGAUAUAUCAGAUCAAAGCUGCAUAGAAGGCUGCACAUGAGGAUCACCCAUGUGGUCUUUAAU [Mat - Exclusion 6 - JL Mod - D3] (Eterna round: R97, puzzle: Exclusion 6)” are 203 nM and 21 nM.
On to “CACUUACAUGAGGAUCACCCAUGUGAGGAUAUCGUGACCAGACGAGAAGUCUAUGUCACGAGAAGGCACGUGGG [Exclusion 1 (Mod 3.1 solution 97 by Eternabot)] (Eterna round: R97, puzzle: Exclusion 1)”, for which the “apparent KD of MS2 coat protein” value is, setting by setting: (input ligand: FMN 200 uM) 20.8 nM; (input ligand: none) 811 nM.
Turning to “UUCAGUCAUCCUUAUUCUUACAUGAGGAUCACCCAUGUUUGUUUAAUUAAGUUUUGUAAGUUUGUUGUUCGUUUUAU [JR_STOV1_v2_Sub073] (Eterna round: R97, puzzle: Sensor, turn-off variant 1)”, the “apparent KD of MS2 coat protein” value runs as follows: (input ligand: FMN 200 uM) 47.9 nM; (input ligand: none) 50.3 nM.
In the same order, the values of “UGUUAUAGAGGAUAUGCGUGAAUAUAGAUUCAUGGAAAUUUACAUGAGGAUCACCCAUGUAGAAGGCUGUGUUU [LRO-Excl2-17-mod 090 by JR] (Eterna round: R97, puzzle: Exclusion 2)” are 14.6 nM and 15.6 nM.
For “UGCAUGCUAGGAUAUACGGGACAUUAGGGUUUGUCGUGUGGACAUGAGGAUCACCCAUGUAGAAGGAGCGUGCU [Mod2 of JL-ex2-2.15 mat747 mod] (puzzle: Exclusion 2)”, under setting [2], the “apparent KD of MS2 coat protein” value is 43.6 nM.
On the same count and under the same terms, the result for “UAUUAAUGCAAGGAUAUGCUUUUAAUUUUUUUUGCAGAAGGUGCAACAUGAGGAUCACCCAUGUUUCCGGGUAU [JR_E6_Sub032] (puzzle: Exclusion 6)” reads 25.7 nM.
Take “UGAAGUAGAGGAUAUACGUGGAAAUAGAUUCAUGUAUAUCUACAUGAGGAUCACCCAUGUAGAAGGCUAUAGAU [JR_Ex2_Sub073] (Eterna round: R97, puzzle: Exclusion 2)”: the “apparent KD of MS2 coat protein” value was found to be 22.8 nM (input ligand: FMN 200 uM) and 22.4 nM (input ligand: none).
